Results reported in CN114736300A (SUZHOU ABCARTA MEDICAL TECH CO LTD, dated 2022).
No end group written: not given here.

Columns and labels:
HER2蛋白 (表达HER2蛋白的细胞) [1] = target: HER2蛋白 (表达HER2蛋白的细胞) (UniProt P04626); assay: flow cytometry on cells expressing HER2, against the blank control without antibody
HER2抗原合成多肽 (SEQ ID No.1) = target: T1, HER2抗原合成多肽 (SEQ ID No.1) (not fully specified; also: coupled to KLH or OVA for immunisation); assay: ELISA screening of hybridoma clones on the HER2 antigen (SEQ ID NO.1)
T1 construct: It was coupled to KLH or OVA for immunisation; also called HER2的多肽
T1 peptide: PTAENPEYLGLDVPV

HER2蛋白 (表达HER2蛋白的细胞) [2] = target: HER2蛋白 (表达HER2蛋白的细胞) (UniProt P04626); assay: flow cytometry on 1×10^6 cells expressing HER2, 0.5 μg antibody, Alexa Fluor 488 goat anti-rabbit secondary

B1: 246G0D3抗HER2重组兔单克隆抗体 (antibody, V domains shown)
VH: QSVEESGGRLVTPGTPLTLTCTVSGFSLSSYAMSWVRQAPGKGLEYIGIIRSSGSTYYASWAKGRFTISKTSTTVDLKLTSPTSEDTATYFCCRGSPGSGSGYSVLWGQGTLVTVSS
VL: AAVLTQTPSPVSAAVGGTVSISCQSSKSVYNNNCLAWYQQKPGQPPKLLIYGASTLASGVPSRFKGSGSGTQFTLTISDVQCDDAATYYCAGGYTDDSDDGFGGGTEVVVK
notes: also called 246G0D3抗体; 246G0D3抗HER2单克隆抗体
Question: Which results are given for B1?
Answer: fold MFI against the blank control (HER2蛋白 (表达HER2蛋白的细胞) [1]): 251 倍; binding result (HER2抗原合成多肽 (SEQ ID No.1)): binds; MFI (HER2蛋白 (表达HER2蛋白的细胞) [2]): 2480
